T1: human glycophorin A on human red blood cells or red blood cell membranes (human, UniProt P02724 20-150)
T1 construct: whole, on cells; also called hRBC; human RBC membranes
T1 sequence (looked up): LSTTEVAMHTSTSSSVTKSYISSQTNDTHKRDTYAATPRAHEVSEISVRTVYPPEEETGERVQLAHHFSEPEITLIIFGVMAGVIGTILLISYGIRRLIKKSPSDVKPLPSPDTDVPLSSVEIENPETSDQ

T2: Rhesus monkey glycophorin A on Rhesus monkey red blood cells (Rhesus monkey, UniProt A0A1D5Q349 20-150)
T2 construct: whole, on cells; also called Rhesus RBC; monkey GPA
T2 sequence: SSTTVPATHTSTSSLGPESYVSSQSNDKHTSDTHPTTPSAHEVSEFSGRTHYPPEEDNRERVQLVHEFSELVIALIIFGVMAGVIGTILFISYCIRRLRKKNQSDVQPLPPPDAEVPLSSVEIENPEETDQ

T3: human glycophorin A in the red blood cell membrane (human, UniProt P02724 20-150)
T3 construct: whole, on cells; used for intact RBC, isolated RBC membranes and transfected cells; the assay field tells which; also called GPA; hGPA
T3 sequence (looked up): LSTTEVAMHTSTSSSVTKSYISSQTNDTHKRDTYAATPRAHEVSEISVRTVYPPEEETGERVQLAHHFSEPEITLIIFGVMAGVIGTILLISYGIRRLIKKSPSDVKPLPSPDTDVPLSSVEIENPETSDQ

T4: purified human glycophorin A protein (Sigma, cat # G5017) (human, UniProt P02724 20-150)
T4 construct: mature; also called Sigma hGPA; Sigma GPA
T4 sequence (looked up): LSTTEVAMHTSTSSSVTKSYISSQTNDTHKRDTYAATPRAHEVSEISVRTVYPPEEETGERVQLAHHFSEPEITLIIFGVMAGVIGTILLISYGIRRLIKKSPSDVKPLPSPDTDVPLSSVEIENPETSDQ


Tests used:
[1] = biological target: T1, human glycophorin A on human red blood …; experiment: SPR (Biacore), Fab on human RBC membranes; T½ = 0.69/kd;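 for kd: human RBC membranes captured on an L1 sensor chip, Fab fragments passed over as analyte, binding kinetics read by surface plasmon resonance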;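 for koff: human RBC membranes captured on an L1 sensor chip, Fab fragments passed over as analyte, binding kinetics read by surface plasmon resonance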
Protocol: (§1) Kinetic analysis of the antibody binding to human red blood cell membranes was also performed using surface plasmon resonance (SPR) using a Biacore instrument. In this assay membranes prepared from human red blood cells were attached to a L1 sensor matrix and antibodies were flowed over the RBC membranes.
(§2) The binding kinetics of the affinity matured Fab antibodies was also measured.

[2] = biological target: T1, human glycophorin A on human red blood …; experiment: SPR (Biacore), Fab on human RBC membranes;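 note: human RBC membranes captured on an L1 sensor chip, Fab fragments passed over as analyte, binding kinetics read by surface plasmon resonance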
Protocol: as §1, §2

[3] = biological target: T1, human glycophorin A on human red blood …; experiment: SPR (Biacore), Fab on human RBC membranes; * not accurate, instrument limit;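 for kd: human RBC membranes captured on an L1 sensor chip, Fab fragments passed over as analyte, binding kinetics read by surface plasmon resonance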
Protocol: as §1, §2

[4] = biological target: T5, Cynomolgus monkey glycophorin A on Cynomolgus monkey red blood cells (Cynomolgus monkey); experiment: FACS, RBC Cy02
T5 construct: whole, on cells; also called Cyno RBC; Cyno GPA
Protocol: (§3) The binding of the humanized variants to intact red blood cells (RBC) from humans (Hu01 to 03; 3 individuals), Rhesus monkey (Rh01 to 03; 3 individuals) and Cynomolgus monkey (Cy01 to 02; 2 individuals) was measured by fluorescence activated cell sorting (FACS).

[5] = biological target: T2, Rhesus monkey glycophorin A on Rhesus …; experiment: FACS, RBC Rh02
[6] = biological target: T3, human glycophorin A in the red blood …; experiment: FACS, RBC Hu03
Protocol: as §3

[7] = biological target: T3, human glycophorin A in the red blood …; experiment: FACS, RBC Hu02
Protocol: as §3

[8] = biological target: T2, Rhesus monkey glycophorin A on Rhesus …; experiment: FACS, RBC Rh03
Protocol: as §3

[9] = biological target: T2, Rhesus monkey glycophorin A on Rhesus …; experiment: FACS, RBC Rh01
Protocol: as §3

[10] = biological target: T3, human glycophorin A in the red blood …; experiment: FACS, RBC Hu01
Protocol: as §3

[11] = biological target: T5, Cynomolgus monkey glycophorin A on …; experiment: FACS, RBC Cy01
Protocol: as §3

[12] = biological target: T4, purified human glycophorin A protein …; experiment: ELISA, IgG
[13] = biological target: T1, human glycophorin A on human red blood …; experiment: Fab on intact human RBC, unbound Fab by ELISA; 20 min after 200-fold dilution
[14] = biological target: T1, human glycophorin A on human red blood …; experiment: Fab on intact human RBC, unbound Fab by ELISA; 120 min after 200-fold dilution
Protocol: (§4) The binding of affinity matured Fab antibodies to intact human RBC was also measured. Human RBC were isolated from fresh anti-coagulated normal human blood by centrifugation through a ficol gradient and washing in PBS buffer. RBC diluted to 1/10th of normal hematocrit were incubated with purified Fab antibodies at a final concentration of 7 ug/ml for 1 hour at room temperature on a rotating shaker after which a sample was taken and the RBC were pelleted by centrifugation and the supernatant was collected. The remaining RBC suspension was diluted 200-fold in PBS buffer and incubated for a total of 2 hours at room temperature on a rotating shaker and samples were removed at 0, 5 min, 20 min, 1 h and 2 h and the RBC pelleted and the supernatant collected. The amount of Fab in the supernatants was then measured using an ELISA assay and the results used to calculate the percentage of the input Fab that was bound to the RBC. […] The percentage that remains bound after 200-fold dilution of the RBC suspension is an indication of the overall strength of the binding to human RBC.

[15] = biological target: T6, Cynomolgus monkey glycophorin A on Cynomolgus monkey red blood cells or red blood cell membranes (Cynomolgus monkey); experiment: Fab on intact cyno RBC, unbound Fab by ELISA; 60 min after 200-fold dilution
T6 construct: whole, on cells; also called Cyno RBC; Cynomolgus monkey RBC membranes

[16] = biological target: T1, human glycophorin A on human red blood …; experiment: Fab on intact human RBC, unbound Fab by ELISA; 5 min after 200-fold dilution
Protocol: as §4

[17] = biological target: T6, Cynomolgus monkey glycophorin A on …; experiment: Fab 7 ug/ml on intact cyno RBC, unbound Fab by ELISA; pre-dilution
Protocol: The binding of affinity matured Fab antibodies to intact Cynomolgus monkey RBC was measured. Cynomolgus monkey RBC were isolated from fresh anti-coagulated blood by centrifugation through a ficol gradient and washing in PBS buffer. RBC diluted to 1/10th of normal hematocrit were incubated with the Fab at a final concentration of 7 ug/ml for 1 hour at room temperature on a rotating shaker after which a sample was taken and the RBC were pelleted by centrifugation and the supernatant was collected. The remaining RBC suspension was diluted 200-fold in PBS buffer and incubated for a total of 2 hours at room temperature on a rotating shaker and samples were removed at 0, 5 min, 20 min, 1 h and 2 h and the RBC pelleted and the supernatant collected. […] The amount of Fab in the supernatants was then measured using an ELISA assay and the results used to calculate the percentage of the input Fab that was bound to the RBC.

[18] = biological target: T1, human glycophorin A on human red blood …; experiment: Fab 7 ug/ml on intact human RBC, unbound Fab by ELISA; pre-dilution
[19] = biological target: T1, human glycophorin A on human red blood …; experiment: Fab on intact human RBC, unbound Fab by ELISA; 0 min after 200-fold dilution
[20] = biological target: T6, Cynomolgus monkey glycophorin A on …; experiment: Fab on intact cyno RBC, unbound Fab by ELISA; 5 min after 200-fold dilution
[21] = biological target: T6, Cynomolgus monkey glycophorin A on …; experiment: Fab on intact cyno RBC, unbound Fab by ELISA; 120 min after 200-fold dilution
[22] = biological target: T1, human glycophorin A on human red blood …; experiment: Fab on intact human RBC, unbound Fab by ELISA; 60 min after 200-fold dilution
Protocol: as §4

[23] = biological target: T6, Cynomolgus monkey glycophorin A on …; experiment: Fab on intact cyno RBC, unbound Fab by ELISA; 20 min after 200-fold dilution

Row | Binder | Estimated T½ [1] | Kd [2] | koff [2] | fluorescence intensity [4] | fluorescence intensity [5] | fluorescence intensity [6] | fluorescence intensity [7] | fluorescence intensity [8] | fluorescence intensity [9] | fluorescence intensity [10] | fluorescence intensity [11] | EC50 [12] | kon [2] | also measured
1 | TPP-7776, affinity matured 6C12 Fab (Fab, V domains shown, Tested as Fab) VH: EVQLVQSGAEVKKPGASVKVSCKASGYTFTTYAIHWVRQAPGQGLEWMGYINPSSGYTRYNPKFKGRVTMTRDKSTSTAYMELRSLRSDDTAVYYCQTGTRDYWGQGTTVTVSS VL: DIQLTQSPSFLSASVGDRVTITCRASSSVRYIYWFQQKPGKAPKLLIYATSTLRSGVPSRFSGSGSGTEYTLTISSLQPEDFATYYCHQRNSFPYTFGQGTKLEIK | 12 min | 0.0829 nM | 0.00097 s⁻¹ |  |  |  |  |  |  |  |  |  |  | kon [3]: 1.17e+07 M⁻¹ s⁻¹
2 | Hu6C12-20 (antibody, V domains shown, IgG format; VH.1c + Vk.1b) VH: EVQLVQSGAEVKKPGASVKVSCKASGYTFTTYTIHWVRQAPGQGLEWMGYINPSSDYTRYNPKFKDRVTMTTDTSTSTAYMELRSLRSDDTAVYYCQTGTRDYWGQGTTVTVSS VL: DIQLTQSPSFLSASVGDRVTITCSAASSVSYIYWFQQKPGKAPKLLIYSTSTLPSGVPSRFSGSGSGTEYTLTISSLQPEDFATYYCHQRNSFPFTFGQGTKLEIK |  |  |  | 1250 | 1620 | 1460 | 1300 | 1550 | 1670 | 1670 | 1070 | 0.393 nM |  | 
3 | TPP-7789, affinity matured 6C12 Fab (Fab, V domains shown, Tested as Fab) VH: EVQLVQSGAEVKKPGASVKVSCKASGYTFTTYTIHWVRQAPGQGLEWMGYINPSSGYTRYNPKFKHRVTMTRDKSTSTAYMELRSLRSDDTAVYYCWTGTRDYWGQGTTVTVSS VL: DIQLTQSPSFLSASVGDRVTITCRASSSVRYIYWFQQKPGKAPKLLIYATSTLQSGVPSRFSGSGSGTEYTLTISSLQPEDFATYYCHQRNSFPYTFGQGTKLEIK | 90 min | 0.00799 nM | 0.000128 s⁻¹ |  |  |  |  |  |  |  |  |  |  | kon [3]: 1.61e+07 M⁻¹ s⁻¹
4 | Hu6C12-22 (antibody, V domains shown, IgG format; VH.1e + Vk.1b) VH: EVQLVQSGAEVKKPGASVKVSCKASGYTFTTYTIHWVRQAPGQGLEWMGYINPSSDYTRYNPKFKDRVTLTTDTSTSTAYMELRSLRSDDTAVYYCATGTRDYWGQGTTVTVSS VL: DIQLTQSPSFLSASVGDRVTITCSAASSVSYIYWFQQKPGKAPKLLIYSTSTLPSGVPSRFSGSGSGTEYTLTISSLQPEDFATYYCHQRNSFPFTFGQGTKLEIK |  |  |  | 1170 | 1490 | 1330 | 1170 | 1450 | 1530 | 1570 | 991 | 0.886 nM |  | 
5 | Hu6C12-23 (antibody, V domains shown, IgG format; VH.1f + Vk.1b) VH: EVQLVQSGAEVKKPGASVKVSCKASGYTFTTYTIHWVRQAPGQGLEWMGYINPSSDYTRYNPKFKDRVTLTTDTSTSTAYMELRSLRSDDTAVYYCQTGTRDYWGQGTTVTVSS VL: DIQLTQSPSFLSASVGDRVTITCSAASSVSYIYWFQQKPGKAPKLLIYSTSTLPSGVPSRFSGSGSGTEYTLTISSLQPEDFATYYCHQRNSFPFTFGQGTKLEIK |  |  |  | 1320 | 1680 | 1460 | 1300 | 1700 | 1710 | 1680 | 1140 | 0.374 nM |  | 
6 | TPP-7777, affinity matured 6C12 Fab (Fab, V domains shown, Tested as Fab) VH: EVQLVQSGAEVKKPGASVKVSCKASGYTFTTYTIHWVRQAPGQGLEWMGYINPSSGWTRYNPKFKGRVTMTRDKSTSTAYMELRSLRSDDTAVYYCWTGRRDYWGQGTTVTVSS VL: DIQLTQSPSFLSASVGDRVTITCRASSSVSYIYWFQQKPGKAPKLLIYATSTRQSGVPSRFSGSGSGTEYTLTISSLQPEDFATYYCHQRNSFPYTFGQGTKLEIK | 31 min | 0.0499 nM | 0.000371 s⁻¹ |  |  |  |  |  |  |  |  |  | 7.44e+06 M⁻¹ s⁻¹ | 
7 | TPP-7795, affinity matured 6C12 Fab (Fab, V domains shown, Tested as Fab) VH: EVQLVQSGAEVKKPGASVKVSCKASGYTFTTYTIHWVRQAPGQGLEWMGYINPKSGWTRYNPKFKGRVTMTRDKSTSTAYMELRSLRSDDTAVYYCQTGTRDYWGQGTTVTVSS VL: DIQLTQSPSFLSASVGDRVTITCRASSSVSYIYWFQQKPGKAPKLLIYATSFLQSGVPSRFSGSGSGTEYTLTISSLQPEDFATYYCHQRNSFPYTFGQGTKLEIK |  |  |  |  |  |  |  |  |  |  |  |  |  | percentage of input antibody bound [13]: 63%; percentage of input antibody bound [14]: 63%; percentage of input antibody bound [15]: 29%; percentage of input antibody bound [16]: 74%; percentage of input antibody bound [17]: 73%; percentage of input antibody bound [18]: 95%; percentage of input antibody bound [19]: 86%; percentage of input antibody bound [20]: 51%; percentage of input antibody bound [21]: 22%; percentage of input antibody bound [22]: 63%; percentage of input antibody bound [23]: 39%
8 | TPP-7787, affinity matured 6C12 Fab (Fab, V domains shown, Tested as Fab) VH: EVQLVQSGAEVKKPGASVKVSCKASGYTFTTYAIHWVRQAPGQGLEWMGYINPSSGYTRYNPKFKGRVTMTRDKSTSTAYMELRSLRSDDTAVYYCWTGTRDYWGQGTTVTVSS VL: DIQLTQSPSFLSASVGDRVTITCRASSSVSYIYWFQQKPGKAPKLLIYATSTRQSGVPSRFSGSGSGTEYTLTISSLQPEDFATYYCHQRNSFPYTFGQGTKLEIK | 83 min | 0.0222 nM | 0.000139 s⁻¹ |  |  |  |  |  |  |  |  |  | 6.25e+06 M⁻¹ s⁻¹ | 
9 | Hu6C12-24 (antibody, V domains shown, IgG format; VH.1g + Vk.1b) VH: EVQLVQSGAEVKKPGASVKVSCKASGYTFTTYTIHWVRQAPGQGLEWIGYINPSSDYTRYNPKFKDRVTLTTDKSTSTAYMELRSLRSDDTAVYYCQTGTRDYWGQGTTVTVSS VL: DIQLTQSPSFLSASVGDRVTITCSAASSVSYIYWFQQKPGKAPKLLIYSTSTLPSGVPSRFSGSGSGTEYTLTISSLQPEDFATYYCHQRNSFPFTFGQGTKLEIK |  |  |  | 1770 | 2540 | 2100 | 1850 | 2370 | 2330 | 2250 | 1660 | 0.282 nM |  | 
10 | TPP-7788, affinity matured 6C12 Fab (Fab, V domains shown, Tested as Fab) VH: EVQLVQSGAEVKKPGASVKVSCKASGYTFTTYTIHWVRQAPGQGLEWMGYINPKSGWTRYNPKFKGRVTMTRDKSTSTAYMELRSLRSDDTAVYYCQTGTRDYWGQGTTVTVSS VL: DIQLTQSPSFLSASVGDRVTITCRASSSVSYIYWFQQKPGKAPKLLIYATSFRQSGVPSRFSGSGSGTEYTLTISSLQPEDFATYYCHQRNSFPYTFGQGTKLEIK | 28 min | 0.136 nM | 0.000413 s⁻¹ |  |  |  |  |  |  |  |  |  | 3.03e+06 M⁻¹ s⁻¹ | 

— US20190359687A1 (Bayer, published 2019)
